± gives the uncertainty stated by the source.
Assay: protein stability index of a GFP-peptide fusion (yeast GPS) (PSI 1-4); higher = more stable; sorted into four equal gates, so the index is relative within each strain
Method in brief: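 Plasmids isolated from each sorting gate were PCR-amplified and Illumina-sequenced, and barcodes assigned the reads to strains. The gates, four of equal size, were set by GFP/Cherry fluorescence ratio on mid-log cultures in leucine-free medium. These cultures were yeast carrying a pooled library of tiled 17-residue yeast protein peptides fused downstream of GFP on a plasmid that also expresses Cherry. The protein stability index is the sum of every gate's read frequency times its gate number.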

| Sequence | protein stability index (doa10∆) | protein stability index (pdr5∆) | protein stability index (san1∆) | protein stability index (ubr1∆) |
| --- | --- | --- | --- | --- |
| RKRCKGTVGNSHKTTKE [RPL11A] | 2.94 ± 0.28 | 3 ± 0.17 | 2.99 ± 0.16 |  |
| VFVGSGKGTGKTAMAEL [BRR2] | 3.29 ± 0.12 | 3.54 ± 0.15 | 3.44 ± 0.071 | 3.41 ± 0.098 |
| VKVARLAGKYIPNLTAK [FAS1] | 3.34 ± 0.25 | 2.58 ± 0.22 |  | 3.03 ± 0.14 |
| EESIKIYPLIKPGSTVM [UBP6] | 2.94 ± 0.18 | 3.01 ± 0.093 |  | 2.96 ± 0.17 |
| LKSSLADVLSILAMTYS [RPN1] | 1.7 ± 0.062 | 2.02 ± 0.12 | 1.89 ± 0.19 | 1.96 ± 0.059 |
| VSDSEIIDLNLHSFTKQ [POP6] | 2.72 ± 0.061 | 2.85 ± 0.062 | 2.41 ± 0.061 | 2.73 ± 0.044 |
| SYVEPVLVASAKGLQTV [RPL31A] | 2.2 ± 0.059 | 2.33 ± 0.08 | 2.23 ± 0.065 | 2.22 ± 0.082 |
| RKFHELNDHIDDFEVNV [GRR1] | 3.07 ± 0.097 | 3.18 ± 0.1 | 2.42 ± 0.16 | 3.08 ± 0.073 |
| ASGLLRAYLSHSNRCIV [CSN12] | 1.85 ± 0.04 | 1.56 ± 0.04 | 1.7 ± 0.063 | 1.25 ± 0.027 |
| KFSERRKALPKEPKKLL [DSN1] | 2.33 ± 0.069 | 2.88 ± 0.081 | 2.52 ± 0.11 | 2.87 ± 0.053 |
| KKIVDDTIMENPEPNKK [IRR1] | 2.14 ± 0.071 | 2.81 ± 0.054 | 2.53 ± 0.084 | 2.59 ± 0.078 |
| MKLVNFLKKLRNEQVTI [SMD1] | 1.87 ± 0.17 | 1.93 ± 0.095 | 2.04 ± 0.14 | 2.5 ± 0.11 |
| ISLRNNHKIIARVKAFD [SMD2] | 1.79 ± 0.044 | 2.02 ± 0.038 | 2.49 ± 0.051 | 2 ± 0.041 |
| ESQQQDESLKDEATVPN [SWI3] | 3.19 ± 0.079 | 3.36 ± 0.09 | 3.31 ± 0.15 | 3.21 ± 0.098 |
| DVDPEFYLKYVDIRVGK [RET1] | 3.31 ± 0.28 | 2.79 ± 0.16 | 2.4 ± 0.14 | 2.54 ± 0.1 |
| LQSLTSKGYVKTQFSWQ [RPS10A] | 3.2 ± 0.1 | 2.94 ± 0.096 | 2.76 ± 0.086 | 3.07 ± 0.065 |
| NPRRLEIKDGRSLFLRN [YMR153W/NUP53] | 3.27 ± 0.1 | 2.9 ± 0.11 | 3.2 ± 0.087 | 3.22 ± 0.085 |
| PATTSQMAKDVTTFLNW [CYT1] | 3.16 ± 0.12 | 3.02 ± 0.13 | 2.84 ± 0.15 | 3.31 ± 0.27 |
| RIIRKKIFIAVVWYQRL [RRI2] | 1.28 ± 0.042 | 1.27 ± 0.036 | 1.27 ± 0.084 | 1.25 ± 0.034 |
| QQAQAQAQAQAQAQAQA [GAL11] | 2.78 ± 0.097 | 3.06 ± 0.17 | 2.92 ± 0.081 | 3.12 ± 0.12 |
| DRVAKVLTYPEKVTRYN [RPO31] | 2.87 ± 0.12 | 2.92 ± 0.14 | 2.94 ± 0.29 | 2.98 ± 0.17 |
| EAASSNKSFIVDQGQIY [ITC1] | 2.92 ± 0.1 | 2.95 ± 0.068 | 2.89 ± 0.044 | 2.93 ± 0.05 |
| KRHRSSYYDNDLDETTQ [YML031W/NDC1] | 2.8 ± 0.065 | 2.76 ± 0.071 | 2.68 ± 0.053 | 2.71 ± 0.071 |
| MINDENYIINDIKKNNK [SRB8] | 3.15 ± 0.078 | 2.97 ± 0.095 | 3.42 ± 0.12 | 3.21 ± 0.13 |
| LNVTPSKRPQLGEIPNP [SIR4] | 2.54 ± 0.072 | 2.83 ± 0.066 | 2.66 ± 0.075 | 2.88 ± 0.063 |
| MVDVEEKSQEVEYVDPT [RPN7] | 3.06 ± 0.22 |  |  | 3.38 ± 0.16 |

| Sequence | protein stability index (doa10∆) | protein stability index (pdr5∆) | protein stability index (san1∆) | protein stability index (ubr1∆) |
| --- | --- | --- | --- | --- |
| ISSLIGGFEYFLQPLLL [NUT1] | 1.21 ± 0.058 | 1.27 ± 0.08 | 1.33 ± 0.16 | 1.38 ± 0.19 |
| ELTKSLSIAFENGDYAA [RPN12] | 3.17 ± 0.16 | 3 ± 0.11 | 3.24 ± 0.073 | 3.24 ± 0.12 |
| IIFQQLLFWTDPRNLVN [YCG1] | 2.04 ± 0.082 | 2.35 ± 0.067 | 3.1 ± 0.059 | 2.13 ± 0.11 |
| PIKNRTSKSFSKLLYDD [SIN4] | 2.63 ± 0.07 | 2.73 ± 0.045 | 2.22 ± 0.086 | 2.64 ± 0.048 |
| VSNSISRLGEENLPGLS [SNU114] | 1.14 ± 0.12 | 1.27 ± 0.15 | 1.07 ± 0.15 | 1.07 ± 0.12 |
| IHEIDERLAKVNEMNDQ [NNF1] | 1.37 ± 0.089 | 2.51 ± 0.14 | 1.63 ± 0.12 | 1.96 ± 0.061 |
| GESIMSEEPTDFGFDLD [MCD1] | 3.1 ± 0.13 | 3.25 ± 0.17 | 3.34 ± 0.072 | 3.24 ± 0.095 |
| PYGSFHQQQLQQPHYIQ [DSN1] | 2.76 ± 0.063 | 2.98 ± 0.052 | 2.92 ± 0.044 | 3.1 ± 0.048 |
| THSYNFMRQNLEWNMAN [RPC82] | 2.45 ± 0.064 | 1.75 ± 0.057 | 1.74 ± 0.07 | 2.24 ± 0.048 |
| ATAAESDVAKQLAALGY [RPL16A] | 2.98 ± 0.042 | 2.91 ± 0.056 | 3.18 ± 0.045 | 3.2 ± 0.048 |
| DGLGNVVDFTSLPEELK [YMR129W/POM152] | 3.4 ± 0.096 | 3.47 ± 0.1 | 3.3 ± 0.046 | 3.42 ± 0.095 |
| EEGEYKNAANTEGHKGH [ISW2] | 3.31 ± 0.062 | 3.16 ± 0.069 | 3.31 ± 0.064 | 3.21 ± 0.053 |
| GTLLREDDNTPAGHAGN [YDL088C/ASM4] | 3.03 ± 0.084 | 2.79 ± 0.086 | 3.09 ± 0.054 | 3 ± 0.045 |
| VVGVVGYVETPRGLRSL [RPL3] | 2.15 ± 0.072 | 2.68 ± 0.049 | 3.15 ± 0.056 | 2.98 ± 0.095 |
| YLKGATGHSQGLVTAVA [FAS1] |  |  |  | 3.86 ± 0.23 |
| SWVQPRIISGDQITKMK [RPN9] | 3.76 ± 0.26 | 3.27 ± 0.12 | 2.94 ± 0.14 | 3.56 ± 0.2 |
| TIDWVEAGLQLCRQGHN [PRP8] | 2.08 ± 0.18 | 2.77 ± 0.1 | 2.08 ± 0.091 | 2.26 ± 0.085 |
| VQEQLSKNRIIVEADEK [RET1] | 1.52 ± 0.088 | 1.37 ± 0.052 | 1.65 ± 0.14 | 1.4 ± 0.062 |
| GLLDLERVIVVTGFAEV [FAS2] | 2.9 ± 0.17 | 2.32 ± 0.095 | 2.21 ± 0.17 | 2.16 ± 0.11 |
| CEINYYEILLKILITYG [SRB8] | 1.2 ± 0.047 | 1.54 ± 0.065 | 1.17 ± 0.1 | 1.2 ± 0.076 |
| NVFNDTPRGNHWMGSSV [YMR129W/POM152] | 3.39 ± 0.11 | 3.46 ± 0.099 | 2.98 ± 0.075 | 3.12 ± 0.081 |
| RRGAHGSELSSKIRKIH [SIR3] | 2.32 ± 0.12 | 2.02 ± 0.087 | 2.57 ± 0.15 | 2.54 ± 0.063 |
| GLWGFSTATRNVTMIDD [COR1] | 3.18 ± 0.083 | 3.1 ± 0.08 | 3.02 ± 0.064 | 2.85 ± 0.066 |
| LKYSKRRSLKKQGRIKN [CSN12] | 3.01 ± 0.064 | 3.27 ± 0.069 | 3.21 ± 0.098 | 3.25 ± 0.036 |
| DNVQANDPAREKFSSFI [SNF12] | 2.94 ± 0.11 | 3.01 ± 0.086 | 3.1 ± 0.069 | 3.11 ± 0.043 |
| KSIMDGIHDGHIKKLLH [FAS1] | 1.54 ± 0.035 | 1.48 ± 0.037 | 1.37 ± 0.075 | 1.38 ± 0.024 |

From the supplement of paper PMC9732359
